Results: patent US20170158755A1
Changes are numbered by the printed parent chain.

B1: humanized 19C12 antibody H2L3 (antibody, V domains shown)
VH: QVQLQQSGAELVKPGASVKVSCKASGYAFSTYWMNWVRQAPGQGLEWIGQIYPGDGDTNYNGKFKGRVTITADKSTSTAYMELSSLRSEDTAVYFCARSDGYYDYWGQGTTVTVSS
VL: NIVLTQSPASLAVSLGERATISCRASESVDSYGTSFMHWYQQKPGQPPKLLICLASSLESGVPARFSGSGSRTDFTLTIDPVEAEDAATYYCQQNNEDPPTFGAGTKLEIKR
B2: Fab fragment of chimeric 19C12 (Fab, V domains shown)
VH: QVQLQQSGAELVKPGASVKISCKASGYAFSTYWMNWVKQRPGEGLEWIGQIYPGDGDTNYNGKFKGKATLTADKSSSTAYMQLSSLTSEDSAVYFCARSDGYYDYWGQGTTLTVSS
VL: B1 VL with E17Q, E85D, I110L
B3: chimeric 19C12 antibody (antibody, V domains shown)
VH: B2 VH
VL: B1 VL with E17Q, E85D, I110L
B4: humanized 19C12 antibody H2L4 (antibody, V domains shown)
VH: B1 VH
VL: B1 VL with C53S, R72G, D80S
B5: humanized 19C12 antibody H2L6 (antibody, V domains shown)
VH: B1 VH
VL: B1 VL with N1D, C53S, R72G, D80S
B6: humanized 19C12 antibody H3L6 (antibody, V domains shown)
VH: B1 VH with Q1E
VL: B1 VL with N1D, C53S, R72G, D80S
B7: Fab fragment of humanized 19C12 H2L3 (Fab, V domains shown)
VH: B1 VH
VL: B1 VL
B8: Fab fragment of humanized 19C12 H2L4 (Fab, V domains shown)
VH: B1 VH
VL: B1 VL with C53S, R72G, D80S
B9: Fab fragment of humanized 19C12 H2L6 (Fab, V domains shown)
VH: B1 VH
VL: B1 VL with N1D, C53S, R72G, D80S
B10: Fab fragment of humanized 19C12 H3L6 (Fab, V domains shown)
VH: B1 VH with Q1E
VL: B1 VL with N1D, C53S, R72G, D80S

Target: His-LAMA4 as used in Example 6 (species not stated) (Homo sapiens (Human)) (UniProt Q16363)
Experiment: Biacore, steady-state approximation; IgG loaded on anti-human Fc sensor, free laminin α4 as analyte; IgG on anti-human Fc sensor, free laminin α4 as analyte; steady state

Binder	Kd [nM]
B1	1.86

Target: His-LAMA4 as used in Example 6 (species not stated) (Homo sapiens (Human)) (UniProt Q16363)
Experiment: Biacore SPR, Fab over His-laminin-α4 captured on anti-6xHis; Fab, not IgG; kinetic fit

Binder	kon [M⁻¹ s⁻¹]
B2	9.5e+06

Target: His-LAMA4 as used in Example 6 (species not stated) (Homo sapiens (Human)) (UniProt Q16363)
Experiment: ForteBio BLI, LAMA-His on anti-His sensor, antibody 8.33 nM

Binder	Kd [nM]	Response	koff [s⁻¹]	kon [M⁻¹ s⁻¹]
B3	0.0126	1.15	0.000251	2e+07
B1	0.0124	1.23	0.000256	2.07e+07
B4	0.0161	1.18	0.000268	1.67e+07
B5	0.0154	1.13	0.000308	2e+07
B6	0.0135	1.2	0.000286	2.11e+07

Target: His-LAMA4 as used in Example 6 (species not stated) (Homo sapiens (Human)) (UniProt Q16363)
Experiment: Biacore, steady-state approximation; IgG loaded on anti-human Fc sensor, free laminin α4 as analyte

Binder	Kd [nM]
B6	1.36

Target: His-LAMA4 as used in Example 6 (species not stated) (Homo sapiens (Human)) (UniProt Q16363)
Experiment: Biacore SPR, Fab, steady-state approximation

Binder	Kd [nM]
B2	0.98
B7	1.9
B8	7.1
B9	8.4
B10	7.2

Target: His-LAMA4 as used in Example 6 (species not stated) (Homo sapiens (Human)) (UniProt Q16363)
Experiment: ForteBio BLI, LAMA-His on anti-His sensor, antibody 16.7 nM

Binder	Kd [nM]	Response	koff [s⁻¹]	kon [M⁻¹ s⁻¹]
B3	0.0538	1.27	0.000403	7.49e+06
B1	0.0507	1.34	0.000363	7.16e+06
B4	0.0227	1.26	0.000227	9.98e+06
B6	0.0626	1.21	0.000501	8.01e+06

Target: His-LAMA4 as used in Example 6 (species not stated) (Homo sapiens (Human)) (UniProt Q16363)
Experiment: ForteBio BLI, LAMA-His on anti-His sensor, antibody 33.3 nM

Binder	Kd [nM]	Response	koff [s⁻¹]	kon [M⁻¹ s⁻¹]
B3	0.111	1.38	0.000487	4.37e+06
B1	0.115	1.54	0.000493	4.29e+06
B4	0.127	1.25	0.00062	4.87e+06
B5	0.123	1.26	0.000585	4.75e+06
B6	0.113	1.38	0.000553	4.89e+06

Target: His-LAMA4 as used in Example 6 (species not stated) (Homo sapiens (Human)) (UniProt Q16363)
Experiment: Biacore SPR, Fab over His-laminin-α4 captured on anti-6xHis

Binder	Kd [nM]	koff [s⁻¹]	kon [M⁻¹ s⁻¹]
B2	0.62	0.0059	
B7	0.78	0.0077	9.8e+06
